# T1: GST-Nck SH2, P16333
# T1 chain: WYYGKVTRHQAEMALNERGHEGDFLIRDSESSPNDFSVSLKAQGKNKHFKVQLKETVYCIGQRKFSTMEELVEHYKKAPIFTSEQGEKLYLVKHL
# Columns and labels:
# [1] = target: Nck1 (Nck1-GFP, GST-Nck1 constructs) SH2 domain (UniProt P16333); assay: GST-Nck SH2 pull-down from lysate; settings: reference: wild type
# GST-Nck SH2, P16333 = target: T1, GST-Nck SH2, P16333; assay: GST pull-down, anti-HA immunoblot quantified by ImageJ; settings: chain shown with the change; 293T cells transiently transfected with Lck and HA-tagged TSAd constructs; lane 7
molecule,measurement,setting,value
"TSAd (T cell specific adaptor protein) (from UniProt Q9NP31) Y280,305F",binding against the reference,"[1]; sites Y280,Y305",lost
TSAd (T cell specific adaptor protein) (from UniProt Q9NP31) Y280F,binding against the reference,[1]; sites Y280,weaker
"HA-tagged TSAd WT co-expressed with Lck in 293T cells (tyrosine phosphorylated), Q9NP31-1 Y280F; Y290F; Y305F (protein) MEFPLAQICPQGSHEAPIPTFSTFQITDMTRRSCQNLGYTAASPQAPEAASNTGNAERAEEVPGEGSLFLQAETRAWFQKTQAHWLLQHGAAPAWFHGFITRREAERLLEPKPQGCYLVRFSESAVTFVLTYRSRTCCRHFLLAQLRDGRHVVLGEDSAHARLQDLLLHYTAHPLSPYGETLTEPLARQTPEPAGLSLRTEESNFGSKSQDPNPQYSPIIKQGQAPVPMQKEGAGEKEPSQLLRPKPPIPAKPQLPPEVYTIPVPRHRPAPRPKPSNPIFNEPDEPIAFFAMGRGSPGEAPSNIFVEVEDEGLPATLGHPVLRKSWSRPVPGGQNTGGSQLHSENSVIGQGPPLPHQPPPAWRHTLPHNLSRQVLQDRGQAWLPLGPPQ",ratio to parent,"GST-Nck SH2, P16333",-0

# Source: article PMC4499191
